The assay addresses T1, 158P1D7 protein (Homo sapiens, UniProt Q9H5Y7).
T1 construct: from tissue; host or cells: formalin fixed, paraffin embedded tumor tissue from patients (bladder transitional cell carcinoma, breast ductal carcinoma, lung carcinoma)
Briefly: Immunohistochemistry of cancer patient specimens with anti-158P1D7 MAb (Table LVIII). The source says:
FIG. 36. Detection of 158P1D7 protein by immunohistochemistry in various cancer patient specimens. Tissue was obtained from patients with bladder transitional cell carcinoma, breast ductal carcinoma and lung carcinoma. […] (C) breast infiltrating ductal carcinoma, moderately differentiated, (D) breast infiltrating ductal carcinoma, moderate to poorly differentiated, (E) lung squamous cell carcinoma, (F) lung adenocarcinoma, well differentiated.
The sections were dewaxed, rehydrated and treated with antigen retrieval solution (Antigen Retrieval Citra Solution; BioGenex, 4600 Norris Canyon Road, San Ramon, Calif., 94583) at high temperature. Sections were then incubated in mouse monoclonal anti-158P1D7 antibody, M15-68(2)22, for 3 hours. The slides were washed three times in buffer and further incubated with DAKO EnVision+™ peroxidase-conjugated goat anti-mouse immunoglobulin secondary antibody (DAKO Corporation, Carpenteria, Calif.) for 1 hour. The sections were then washed in buffer, developed using the DAB kit (SIGMA Chemicals), counterstained using hematoxylin, and analyzed by bright field microscopy. […] 49.3% of bladder transitional cell carcinoma samples tested were positive for 158P1D7 (Table LVIII).

Where [1] appears, read: Breast Carcinoma patient specimens.
[2] abbreviates: Lung Carcinoma patient specimens.

As to 158P1D7 protein, the “% No. Positive” value by setting is: (Bladder TCC patient specimens) 49.3%; under setting [1], 90.9%; under setting [2], 23.1%. Moreover, the “Number Positive” value reads like this: (Bladder TCC patient specimens) 35; under setting [1], 11; under setting [2], 26.

The values are drawn from patent publication US7358353B2, “Nucleic acid and corresponding protein named 158P1D7 useful in the treatment and detection of bladder and other cancers” (Agensys, Inc., priority 2000, dated 2008).
